The values that follow come from patent publication US20260193307A1 (ASKGENE PHARMA, published 2026).

Test [1] has as its target T1, IL-2 (UniProt P60568 21-153). The test can be described thus: cell-based or functional assay.
Test [2] addresses T1, IL-2. The experiment in a line: ForteBio (BLI), purified scFv-Fc to IL-2.

T1 sequence (P60568 21-153 limits assumed): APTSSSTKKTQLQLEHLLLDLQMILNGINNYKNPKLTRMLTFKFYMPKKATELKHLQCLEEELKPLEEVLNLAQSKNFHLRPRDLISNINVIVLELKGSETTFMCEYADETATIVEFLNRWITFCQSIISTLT

B1: K1-69C7 scFv-Fc (JR8.153.1) (Fc fusion)
chain: DIQMTQSPSSLSASVGDRVTITCRASQDISNYLNWYQQKPGKAPKLLIYGASSLQSGVPSRFSGSGSGTDFTLTISSLQPEDFATYYCQQTYTIPLTFGQGTKVEIKAGGGGSGGGGSGGGGSQVQLVQSGAEVKKPGSSVKVSCKASGGTFTSYAINWVRQAPGQGLEWMGRIIPIIGRVDYAQKFQGRVTITADESTSTAYMELSSLRSEDTAVYYCARGFVGGFDVWGQGTLVTVSS
notes: Purified scFv-Fc homodimer; also called JR8.153.1 K1-69C7; not shown: Fc fragment (human Fc domain)
B1: the “IC50, CTLL2 cell-based IL-2 activity inhibition assay (50 nM IL-2)” value in test [1] was found to be 7 nM. In test [2], this molecule registered a Kd of 0.117 nM and a Response of 3.5.

B2: K3-30B12 scFv-Fc (JR8.156.6) (Fc fusion)
chain: DIQMTQSPSSLSASVGDRVTITCRASQDISTYLNWYQQKPGKAPKLLIYDASSLQSGVPSRFSGSGSGTDFTLTISSLQPEDFATYYCQQSYSAPLTFGQGTKVEIKAGGGGSGGGGSGGGGSEVQLLESGGGLVQPGGSLRLSCAASGFTFSTYAMSWVRQAPGKGLEWVSTISGSGVRTYYADSVKGRFTISRDNSKNTLYLQMNSLRAEDTAVYYCARETYIYGPFDVWGQGTLVTVSS
notes: Purified scFv-Fc homodimer; also called JR8.156.6 K3-30B12; not shown: Fc fragment (human Fc domain)
Turning to B2, in test [2], the affinity, expressed as Kd, was 0.605 nM and the Response was 3.1.

B3: K1-69H5 scFv-Fc (JR8.144.3) (Fc fusion)
chain: EIVLTQSPGTLSLSPGERATLSCRASQSVSSSYLAWYQQKPGQAPRLLIYGASSRATGIPDRFSGSGSGTDFTLTISRLEPEDFAVYYCQQYSRAPGTFGQGTKVEIKAGGGGSGGGGSGGGGSQVQLVQSGAEVKKPGSSVKVSCKASGGTFSSYGIHWVRQAPGQGLEWMGGIIPILGTANYAQKFQGRVTITADESTSTAYMELSSLRSEDTAVYYCAVPFFDVWGQGTLVTVSS
notes: Purified scFv-Fc homodimer; also called JR8.144.3 K1-69H5; not shown: Fc fragment (human Fc domain)
B3: the “IC50, CTLL2 cell-based IL-2 activity inhibition assay (50 nM IL-2)” value in test [1] was found to be 11.3 nM. In test [2], this molecule displayed a Kd below 0.001 nM and a Response of 3.

B4: K3-15F7 scFv-Fc (JR8.144.4) (Fc fusion)
chain: DIQMTQSPSSLSASVGDRVTITCRASQDIRRYLNWYQQKPGKAPKLLIYAASSLQSGVPSRFSGSGSGTDFTLTISSLQPEDFATYYCQQAYSIPLTFGQGTKVEIKGGGGSGGGGSGGGGSEVQLVESGGGLVKPGGSLRLSCAASGFTFSNAWMSWVRQAPGKGLEWVGRIKSKTAGGTTDYAAPVKGRFTISRDDSKNTLYLQMNSLKTEDTAVYYCARDWWYLDFDYWGQGTLVTVSS
notes: Purified scFv-Fc homodimer; also called JR8.144.4 K3-15F7; not shown: Fc fragment (human Fc domain)
In test [2], B4 returned a Kd below 0.001 nM and a Response of 3.
